Like-named read-outs stand apart in the source and are kept apart here. Marks after values point to notes of the source that are not given here.
B1: S{Beta-180}-[2-[2-[[2-[2-[2-[[2-[2-[2-[[(4S)-4-carboxy-4-(15-carboxypentadecanoyl-amino)butanoyl]amino]ethoxy]ethoxy]acetyl]amino]ethoxy]ethoxy]acetyl]amino]-ethylamino]-2-oxoethyl]-Ala[Gln121,Leu168, … (protein)
chain: HPIPDSSPLLQFGGQVRQRYLYTDDAQQTEAHLEIREDGTVGGAADQSPESLLQLKALKPGVIQILGVKTSRFLCQRPDGALYGSLHFDPEACSFRELLLEDGYNVYQSEAHGLPLHLPGQKSPHRDPAPRGPARFLPLPGLPPALPEPPGILAPQPPDVGSSDPLSLVGPSQGRSPSYCS
B2: S{Beta-181}-[2-[2-[[2-[2-[2-[[2-[2-[2-[[(4S)-4-carboxy-4-(15-carboxypentadecanoyl-amino)butanoyl]amino]ethoxy]ethoxy]acetyl]amino]ethoxy]ethoxy]acetyl]amino]-ethylamino]-2-oxoethyl]-Ala[Gln121,Leu168, … (protein)
chain: HPIPDSSPLLQFGGQVRQRYLYTDDAQQTEAHLEIREDGTVGGAADQSPESLLQLKALKPGVIQILGVKTSRFLCQRPDGALYGSLHFDPEACSFRELLLEDGYNVYQSEAHGLPLHLPGQKSPHRDPAPRGPARFLPLPGLPPALPEPPGILAPQPPDVGSSDPLSLVGPSQGRSPSYAC
B3: S{Beta-180}-[2-[2-[[2-[2-[2-[[2-[2-[2-[[(4S)-4-carboxy-4-(17-carboxyheptadecanoyl-amino)butanoyl]amino]ethoxy]ethoxy]acetyl]amino]ethoxy]ethoxy]acetyl]amino]-ethylamino]-2-oxoethyl]-Ala[Gln121,Leu168, … (protein)
chain: HPIPDSSPLLQFGGQVRQRYLYTDDAQQTEAHLEIREDGTVGGAADQSPESLLQLKALKPGVIQILGVKTSRFLCQRPDGALYGSLHFDPEACSFRELLLEDGYNVYQSEAHGLPLHLPGQKSPHRDPAPRGPARFLPLPGLPPALPEPPGILAPQPPDVGSSDPLSLVGPSQGRSPSYCS
B4: S{Beta-181}-[2-[2-[[2-[2-[2-[[2-[2-[2-[[(4S)-4-carboxy-4-(13-carboxytridecanoyl-amino)butanoyl]amino]ethoxy]ethoxy]acetyl]amino]ethoxy]ethoxy]acetyl]amino]-ethylamino]-2-oxoethyl]-Ala[Gln121,Leu168,Cy … (protein)
chain: HPIPDSSPLLQFGGQVRQRYLYTDDAQQTEAHLEIREDGTVGGAADQSPESLLQLKALKPGVIQILGVKTSRFLCQRPDGALYGSLHFDPEACSFRELLLEDGYNVYQSEAHGLPLHLPGQKSPHRDPAPRGPARFLPLPGLPPALPEPPGILAPQPPDVGSSDPLSLVGPSQGRSPSYAC
B5: MetFGF21 (protein)
chain: MHPIPDSSPLLQFGGQVRQRYLYTDDAQQTEAHLEIREDGTVGGAADQSPESLLQLKALKPGVIQILGVKTSRFLCQRPDGALYGSLHFDPEACSFRELLLEDGYNVYQSEAHGLPLHLPGNKSPHRDPAPRGPARFLPLPGLPPALPEPPGILAPQPPDVGSSDPLSMVGPSQGRSPSYAS

Legend:
[1] = molecular target: FGF receptor/BKL complex; experiment: FGF receptor potency in an Erk phosphorylation assay in HEK293 overexpressing human BKL; assay type: cell-based; conditions: HEK293/BKL cells, pERK after 12 minutes
In short: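 pERK after 12 min analogue exposure at 37° C. was quantified by AlphaScreen SureFire in lysates of beta-klotho-transfected HEK293 cells. Assay medium was DMEM with 0.02% Tween20, run both without albumin and with 0.1% final HSA to probe albumin binding. Cells were starved 2 h in basal medium first. Absolute EC50 reported.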

[2] = molecular target: 3T3-L1 adipocytes (Mus musculus, UniProt P16092+Q99N32); experiment: Glucose uptake in 3T3-L1 adipocytes; assay type: cell-based; conditions: stimulated 20 hours, 3H-deoxy-glucose
Description: The C-terminal modified analogues were tested for their ability to increase glucose uptake in 3T3-L1 mouse adipocytes. The following assay was used for determining the biological activity, or potency, of FGF21 analogues and derivatives of the invention.
The in vitro potency may also be determined in an assay with mouse 3T3-L1 adipocytes by testing the FGF21 analogues and derivatives for their ability to increase glucose uptake into adipocytes. Differentiated 3T3-L1 adipocytes endogenously express FGFR1c and BKL. The 3T3-L1 cells are unresponsive to FGF21 until after differentiated as differentiation lead to expression of the co-receptor BKL. Activation of the FGFR1 receptor/BKL complex increase the expression of glucose transporter 1 (GLUT1) and therefore FGF21 agonists will lead to an increased amount of glucose taken into the adipocytes in a dose responsive manner.
Mouse 3T3-L1 fibroblasts (e.g. available from ATCC, catalogue no. CL-173) were maintained in basal medium (DMEM (4500 mg/I Glucose) with 10% Fetal Bovine Serum (FBS) and 1% Penicillin/Streptomycin). The cells are not allowed to reach confluence and should be passed (transferred to new vials) before reaching approx. 60% of confluency (by visual inspection).
For the glucose uptake assay, cells were 15.000 cells/well in a 96 well plate (BIOCOAT), and when they reached confluency (high density, with a view to have differentiated adipose cells made), the medium was changed from basal medium to basal medium containing Troglitazone, IBMX, Dexamethasone (commercially available from, e.g., Sigma) and human insulin (commercially available from, e.g., Novo Nordisk A/S).
The cells were used 7-9, days after initiation of differentiation. The cells were stimulated with increasing concentrations (0-300 nM) of the FGF21 analogues or derivatives of the invention for 20 hours in basal medium. Before addition of 3H-deoxy-glucose (in what follows: the tracer) the cells were washed in warm (approximately 37° C.) assay buffer (PBS with 1 mM MgCl2 and 2 mM CaCl2), HEPES and 0.1% Human serum albumin) and the cells were incubated with the tracer for 1 hour. This incubation was terminated by washing twice in ice cold assay buffer. The cells were lysed with Triton X-100 and lysates transferred to a 96 wells plate, microscint-40 (commercially available from, e.g., Perkin Elmer) was added and amount of tracer counted in a TOP-counter (e.g. a Packard top-counter from Perkin Elmer). The EC50 and Emax of the FGF21 compound in question were calculated. The results which are shown in tables 4-5 below indicate the EC50 (potency) and Emax (efficacy) of the FGF21 analogues and derivatives, respectively.

[3] = Body weight reduction in lean mice; assay type: in vivo, lean C57BL mice; conditions: change from baseline day 1 to 7
Description: In order to determine the in vivo potency of the FGF21 derivatives the effect on body weight was studied in lean C57BL mice after subcutaneous (s.c.) administration. It has previously been shown that the weight loss induced by FGF21 in lean mice is predictive of the effect in obese mice and therefore lean mice are considered a good screening model.
The compounds were administered s.c. 1 mg/kg either once (QD) or twice (BID) daily in 10 mM phosphate, 2% (w/vol) glycerol, 500ppm (=0.05%) polysorbate 80, pH=8.15, (2 ml/kg) for 7 days (n=7-8). The respective vehicle treated groups (control) were treated with 10 mM phosphate, 2% (w/vol) glycerol, 500ppm (=0.05%) polysorbate 80, pH=8.15, (2 ml/kg) s.c. twice daily for 7 days (n=6-8). Body weight was measured before dosing and again after 7 days treatment.

[4] = Pharmacokinetic study in mice (i.v.); conditions: terminal half-life, single intravenous dose of 20 mg/kg, lean C57bl mice
[5] = Pharmacokinetic study in mini pigs (i.v.); conditions: terminal half-life, female Gottingen mini pigs
[6] = mouse, in vivo, iv, 20 mg/kg
[7] = pig, in vivo, iv
[8] = presence of 0.1% HSA, read-out: EC50 (0.1% HSA)

Chain of FGF receptor/BKL complex (Q86Z14 whole entry, one chain of several): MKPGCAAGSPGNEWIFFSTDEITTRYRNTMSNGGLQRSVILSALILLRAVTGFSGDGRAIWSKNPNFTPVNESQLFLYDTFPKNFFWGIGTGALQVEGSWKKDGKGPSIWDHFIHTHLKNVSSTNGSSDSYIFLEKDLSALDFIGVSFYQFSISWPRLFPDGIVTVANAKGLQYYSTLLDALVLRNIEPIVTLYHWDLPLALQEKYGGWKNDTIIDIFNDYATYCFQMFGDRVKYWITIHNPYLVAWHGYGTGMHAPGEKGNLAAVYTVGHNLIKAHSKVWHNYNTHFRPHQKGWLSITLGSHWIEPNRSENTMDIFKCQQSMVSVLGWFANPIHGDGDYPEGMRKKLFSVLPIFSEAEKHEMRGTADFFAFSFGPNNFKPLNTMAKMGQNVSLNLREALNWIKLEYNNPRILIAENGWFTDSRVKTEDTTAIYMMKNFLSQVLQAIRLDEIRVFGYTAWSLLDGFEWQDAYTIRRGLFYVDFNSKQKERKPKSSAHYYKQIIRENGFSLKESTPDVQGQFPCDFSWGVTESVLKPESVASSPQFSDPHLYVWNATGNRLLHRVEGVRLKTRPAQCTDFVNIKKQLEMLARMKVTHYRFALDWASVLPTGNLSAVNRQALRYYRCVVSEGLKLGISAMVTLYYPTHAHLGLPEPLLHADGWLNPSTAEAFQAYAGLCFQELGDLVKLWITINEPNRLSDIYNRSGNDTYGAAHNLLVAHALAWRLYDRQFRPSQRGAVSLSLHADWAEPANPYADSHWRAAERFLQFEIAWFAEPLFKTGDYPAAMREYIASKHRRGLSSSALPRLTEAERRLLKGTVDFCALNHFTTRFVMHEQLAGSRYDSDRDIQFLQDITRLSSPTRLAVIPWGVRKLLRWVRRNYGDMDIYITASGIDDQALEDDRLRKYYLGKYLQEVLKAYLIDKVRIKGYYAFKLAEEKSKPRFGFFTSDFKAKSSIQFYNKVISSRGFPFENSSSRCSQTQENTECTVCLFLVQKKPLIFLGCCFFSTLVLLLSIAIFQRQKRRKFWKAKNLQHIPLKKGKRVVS
Chain of 3T3-L1 adipocytes (Q99N32 whole entry): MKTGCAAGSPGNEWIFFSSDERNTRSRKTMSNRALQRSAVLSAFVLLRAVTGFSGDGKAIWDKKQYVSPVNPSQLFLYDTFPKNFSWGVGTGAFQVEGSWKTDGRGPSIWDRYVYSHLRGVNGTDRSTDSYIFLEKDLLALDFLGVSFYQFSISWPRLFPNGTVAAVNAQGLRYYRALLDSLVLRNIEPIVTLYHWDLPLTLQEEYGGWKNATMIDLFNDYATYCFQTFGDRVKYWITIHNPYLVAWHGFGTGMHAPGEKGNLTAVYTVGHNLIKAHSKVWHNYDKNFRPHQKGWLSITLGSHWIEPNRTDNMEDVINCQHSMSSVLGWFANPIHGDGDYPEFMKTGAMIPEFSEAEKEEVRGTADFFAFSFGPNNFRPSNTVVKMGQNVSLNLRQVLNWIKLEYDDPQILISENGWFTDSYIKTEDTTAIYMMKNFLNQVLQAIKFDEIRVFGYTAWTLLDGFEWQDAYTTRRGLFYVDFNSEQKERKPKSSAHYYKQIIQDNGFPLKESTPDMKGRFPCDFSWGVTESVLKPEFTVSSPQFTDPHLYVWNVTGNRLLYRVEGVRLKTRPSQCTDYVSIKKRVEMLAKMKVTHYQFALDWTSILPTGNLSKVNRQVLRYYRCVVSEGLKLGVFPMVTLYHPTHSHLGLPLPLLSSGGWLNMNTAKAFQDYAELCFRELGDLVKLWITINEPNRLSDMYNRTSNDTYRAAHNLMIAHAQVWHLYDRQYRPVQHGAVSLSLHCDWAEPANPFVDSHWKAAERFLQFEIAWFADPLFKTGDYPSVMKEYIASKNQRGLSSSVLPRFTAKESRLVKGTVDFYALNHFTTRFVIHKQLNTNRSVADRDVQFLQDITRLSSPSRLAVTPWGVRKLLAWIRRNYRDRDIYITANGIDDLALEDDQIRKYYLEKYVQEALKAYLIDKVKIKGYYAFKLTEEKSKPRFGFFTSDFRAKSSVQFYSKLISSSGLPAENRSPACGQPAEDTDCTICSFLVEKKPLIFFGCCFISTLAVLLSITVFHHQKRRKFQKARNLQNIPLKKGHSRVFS
Chain of 3T3-L1 adipocytes (P16092 22-822): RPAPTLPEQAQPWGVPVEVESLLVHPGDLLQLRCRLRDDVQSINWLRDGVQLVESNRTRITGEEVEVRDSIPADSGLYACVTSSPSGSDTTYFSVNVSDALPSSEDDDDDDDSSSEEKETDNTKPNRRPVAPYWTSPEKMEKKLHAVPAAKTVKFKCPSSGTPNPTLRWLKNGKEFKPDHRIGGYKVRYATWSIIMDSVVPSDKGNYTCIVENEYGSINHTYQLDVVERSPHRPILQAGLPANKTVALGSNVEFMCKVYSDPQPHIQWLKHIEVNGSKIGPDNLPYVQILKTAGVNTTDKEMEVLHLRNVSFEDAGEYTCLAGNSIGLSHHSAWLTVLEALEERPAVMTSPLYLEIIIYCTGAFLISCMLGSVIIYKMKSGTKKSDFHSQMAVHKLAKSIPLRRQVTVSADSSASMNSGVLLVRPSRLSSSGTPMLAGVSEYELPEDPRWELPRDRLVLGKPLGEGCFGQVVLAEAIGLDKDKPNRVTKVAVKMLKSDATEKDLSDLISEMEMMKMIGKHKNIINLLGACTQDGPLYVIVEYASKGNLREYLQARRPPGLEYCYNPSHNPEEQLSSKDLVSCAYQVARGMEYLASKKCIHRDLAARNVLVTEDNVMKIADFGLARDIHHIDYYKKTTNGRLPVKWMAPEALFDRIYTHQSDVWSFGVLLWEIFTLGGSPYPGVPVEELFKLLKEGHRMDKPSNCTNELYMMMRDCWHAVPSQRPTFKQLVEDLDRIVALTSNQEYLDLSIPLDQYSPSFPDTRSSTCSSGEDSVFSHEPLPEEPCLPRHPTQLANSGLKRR

| Molecule | EC50 ([1]; absence of HSA, read-out: EC50) | EC50 [1, 8] | EC50 [2] | Glucose uptake Emax [2] | Mean Δ body weight (%) ([3]; s.c. 1 mg/kg QD for 7 days) | Half-life mice [4] | Half-life mini pigs [5] | Mean Δ body weight (%) ([3]; s.c. 1 mg/kg BID for 7 days) | Half-life mice [6] | Half-life mini pigs [7] |
| --- | --- | --- | --- | --- | --- | --- | --- | --- | --- | --- |
| B1 | 4 nM | 6 nM | 9.1 nM | 98% | −4.48*** % | 3 h | 23 h | – | – | – |
| B2 | 55 nM | 72 nM | 31 nM | 61% | 0.18% | 4 h | 25 h | – | – | – |
| B3 | 5 nM | 48 nM | 32 nM | 109% | −10.59*** % | 12 h | 70 h | – | – | – |
| B4 | 58 nM | 41 nM | 7.2 nM | 55% | – | 3 h | 2 h | −0.94% | – | – |
| B5 | – | – | – | 100% | – | – | – | −1.88** % | 1 h | 2 h |
